Patent US11859229B2, “Polyvinyl alcohol-degrading enzyme and process for producing the same” (Hayashibara Co., Ltd., priority 2017, dated 2024)

Experiments:
Assay type in all cases: biochemical
[1] = PVA-degrading (viscosity-reducing) activity; settings: at each purification step
Method: While, activity as a PVA-degrading enzyme can be measured, for example, by measuring the viscosity reduction of a PVA solution, caused by the degradation of PVA, as an index using the following method.
To 0.5 mL of a substrate solution prepared by dissolving PVA (Reagent grade polyvinyl alcohol, polymerization degree: 2,000, Nacalai Tesque Inc., Kyoto, Japan) into 100 mM sodium phosphate buffer (pH 7.0) to give a concentration of 2% (w/v), 15 µL of 2% (w/v) of sodium azide solution was added, and then 0.5 mL of an enzyme solution is further added and reacted with shaking at 27° C. for 60 min. After the reaction, 0.6 mL of the reaction mixture was withdrawn and its viscosity was measured using a Cone plate-type viscometer (“DV-II+Pro”, Brookfield Co., Ltd.) at 30° C. Separately, the enzyme solution was added to the substrate solution and the viscosity was measured immediately, and the viscosity was used as that at zero-min reaction. The PVA-degrading activity was calculated based on the following formula. One unit of the PVA-degrading activity was defined as the amount of enzyme that causes a 10%-reduction of relative viscosity per min under the above conditions. […]

[2] = Degradation of PVA by PVA-degrading enzyme: time course of viscosity of reaction mixture; settings: for Viscosity of reaction mixture: 35° C.
Method: Using the purified enzyme preparation of PVA-A obtained by the method of Experiment 2, the enzyme preparations varying the amount of enzyme were allowed to act on substrate solutions varying in PVA concentration, and the time course of the degradation of PVA was investigated by measuring the reduction of viscosity of the reaction mixture.
PVA as a substrate (Reagent grade polyvinyl alcohol, polymerization degree: 2,000, commercialized by Nacalai Tesque Inc., Kyoto, Japan), 50 mM sodium phosphate buffer (pH 7.0), and the purified enzyme solution of PVA-A dissolved in the same buffer were mixed, and the reaction mixtures (volume: 1 mL) with the final concentration of PVA of 1%, 4% or 10% (w/v), and the amount of PVA-A per 1 g-PVA of 1 (or 1.25), 5 or 10 units as PVA-oxidizing activity was prepared. Then, those reaction mixtures in plastic tubes were reacted with shaking at 160 rpm at 35° C. for 1, 4 or 20 hours. In each PVA concentration, a reaction mixture prepared by substituting the enzyme solution to 50 mM phosphate buffer (pH 7.0) was used as control (the amount of enzyme: zero unit). To viscosity measurement using “DV-II+Pro”, a cone-plate viscometer manufactured by Brookfield, Boston, USA, 0.6 mL of a reaction mixture obtained by reacting under each condition was subjected.

[3] = Thermal stability and pH stability (residual PVA-oxidizing activity); settings: 10 mM phosphate buffer, pH 7.0, 60 min
Method: To 0.5 mL of a substrate solution prepared by dissolving PVA (Reagent grade polyvinyl alcohol, polymerization degree: 2,000, Nacalai Tesque Inc., Kyoto, Japan) into 100 mM sodium phosphate buffer (pH 7.0) to give a concentration of 2% (w/v), 15 µL of 2% (w/v) of sodium azide solution was added, and then 0.5 mL of an enzyme solution is further added and reacted with shaking at 27° C. for 60 min. After the 60 min-reaction, the reaction was stopped by mixing 0.32 mL of the reaction mixture to 0.8 mL of a titanium reagent, and the yellow color, produced by reacting hydrogen peroxide formed by the enzyme reaction and the titanium reagent, was measured by measuring the absorbance at 410 nm (A410) as an index. Separately, the enzyme solution was added to the substrate solution, and the resulting mixture is immediately mixed with the titanium reagent. The resulting mixture was similarly measured its color and the value was used as the value at the reaction zero minutes. Then, the amount of the formed hydrogen peroxide is determined and the PVA-oxidizing activity is calculated based on the following formula. It is known that the absorbance at 410 nm (A410) increases by “1” when 3.65 […]mole/mL of hydrogen peroxide is formed. […]
In the two purified preparations of the PVA-degrading enzyme, PVA-A was used for investigating thermal stability and pH stability using PVA-oxidizing activity as an index according to the assay method. Thermal stability was determined by the steps of incubating the enzyme solution (in 10 mM phosphate buffer, pH 7.0) at various temperature for 60 min, cooling in water, and then measuring the residual enzyme activity. pH Stability was determined by the steps of incubating the enzyme solution in 100 mM buffer with different pH at 4° C. for 24 hours, adjusting pH to 7.0, and then measuring the residual enzyme activity. […] In FIG. 6, symbols, “●”, “▪”, “▴” and “♦”, mean values measured by using acetate buffer, phosphate buffer, glycine-NaOH buffer, and potassium chloride-NaOH buffer, respectively, for pH control.

[4] = Assay for PVA-oxidizing activity (hydrogen peroxide formation, titanium reagent, A410)
Method: As shown in the above (1), the PVA-degrading enzyme of the present invention has an PVA-oxidizing activity, i.e., an activity of catalyzing the reaction of oxidizing PVA as substrate and forming hydrogen peroxide. For example, the PVA-oxidizing activity can be measured by the following method.
To 0.5 mL of a substrate solution prepared by dissolving PVA (Reagent grade polyvinyl alcohol, polymerization degree: 2,000, Nacalai Tesque Inc., Kyoto, Japan) into 100 mM sodium phosphate buffer (pH 7.0) to give a concentration of 2% (w/v), 15 µL of 2% (w/v) of sodium azide solution was added, and then 0.5 mL of an enzyme solution is further added and reacted with shaking at 27° C. for 60 min. After the 60 min-reaction, the reaction was stopped by mixing 0.32 mL of the reaction mixture to 0.8 mL of a titanium reagent, and the yellow color, produced by reacting hydrogen peroxide formed by the enzyme reaction and the titanium reagent, was measured by measuring the absorbance at 410 nm (A410) as an index. Separately, the enzyme solution was added to the substrate solution, and the resulting mixture is immediately mixed with the titanium reagent. The resulting mixture was similarly measured its color and the value was used as the value at the reaction zero minutes. Then, the amount of the formed hydrogen peroxide is determined and the PVA-oxidizing activity is calculated based on the following formula. It is known that the absorbance at 410 nm (A410) increases by “1” when 3.65 […]mole/mL of hydrogen peroxide is formed. Therefore, in the following Formula 1, the coefficient of “3.65” has been multiplied. One unit of the PVA-oxidizing activity is defined as the amount of enzyme that forms 1 […]mole of hydrogen peroxide per min under the above conditions. Titanium reagent is prepared by diluting 5% titanium sulfate (IV) solution, commercialized by Nacalai Tesque Inc., Kyoto, Japan, 25-fold with 10% (w/w) sulfuric acid.

B1: PVA-A: purified PVA-degrading hybrid enzyme from Pseudomonas sp. VT1B strain, amino acid sequence of SEQ ID NO: 2 (protein, listed as Pseudomonas sp.)
chain: AENWPMFGKNYENTRATSDTQISTANISTLNVVRRTTDGGITGTPTVVDGVAYYSDFSGYVKAVRVSDGVVLWRVRPQTTMLSPSPFVTADTVYVAGNNSYVYALNRANGAVRWTTQIETSPNSRISSSPIVVGNILIIGTGSYQVFLPATPMFRGRVAFLNATTGAILPYSTNMCPSASCGGGISVWSTAAIDESTRTGYIGTGQAYRDPAGPYSDALVAFNIDTGAIRWARQFLANDVYQLGGTLRYDYDVGAAPNLFVANGQRMVGVGGKDGTYRAFNRDTGAPIWNTPVGRGSAIGGVMQSTAYGDGRIYVTSNTSTIGSGRNDPVPATAEASALDAATGAPVWIRQLDAGGFGGVAYANGLMYASTWDGRLRVFNAANGNIVREVQVSPSRGAYVPAPTDGFPNGSAGGPVVYGNRVLMGYGWTWVLNINGGLTTMEATVGGGASQTVTLASSSDTYVQSGTPTTNYAYDVNLLARLADAEGLTRASFLQFPLTAVPAGTITSARLRLYGRHDAPTGTGQSVSVWPGTKTTTWSGPNVTYNNSSTETGVDFYATSSIATATVGITPQYYEWNVTDYVASRRSLGHATFGVAVNSAHQYRVTLNSADNTANRPELVVTVSGGTGSQLPGSCPSGFTARAGVNQGFMHNGVARGFVLNVPANVSTPRPVFVSLTGSVESTNENLGARGGAGALNNDGFLVIGPVRRCAGQDPNGAGTSVNGGTCNQAGTGGWNWNPWNEGRVFAAAGDPWKTAEGPDSQFLEAVVRCVAASYPVDSTRMYLGGISSGATMTHRALLFNSDFWAGGLPLSGEWYVSQDNGTAYPGADEFAARRQAVINNPTKIFQGRVGPLPLPATQSPMIVISMWGGANDIWYCGSTLCADYRPSTQAASNYFSALPNVVHVACSSSHGHQWPTQNRAAFNTWAATTLASHPKGTPASSFVLPPPPAGYSCRVGRYTDHYSGT
- Total PVA-Degrading Activity (Viscosity-reducing Activity) [1]: 8.2 U
- Viscosity of reaction mixture ([2]; PVA 1% (w/v), 1.25 U/g-PVA, 0 hour): 2.7 mPa·s
- Viscosity of reaction mixture ([2]; PVA 1% (w/v), 1.25 U/g-PVA, 1 hour): 2.3 mPa·s
- Viscosity of reaction mixture ([2]; PVA 1% (w/v), 1.25 U/g-PVA, 4 hours): 1.7 mPa·s
- Viscosity of reaction mixture ([2]; PVA 1% (w/v), 1.25 U/g-PVA, 20 hours): 1.4 mPa·s
- Viscosity of reaction mixture ([2]; PVA 1% (w/v), 5 U/g-PVA, 0 hour): 2.5 mPa·s
- Viscosity of reaction mixture ([2]; PVA 1% (w/v), 5 U/g-PVA, 1 hour): 1.6 mPa·s
- Viscosity of reaction mixture ([2]; PVA 1% (w/v), 5 U/g-PVA, 4 hours): 1.3 mPa·s
- Viscosity of reaction mixture ([2]; PVA 1% (w/v), 5 U/g-PVA, 20 hours): 1.2 mPa·s
- Viscosity of reaction mixture ([2]; PVA 1% (w/v), 10 U/g-PVA, 0 hour): 2.7 mPa·s
- Viscosity of reaction mixture ([2]; PVA 1% (w/v), 10 U/g-PVA, 1 hour): 1.4 mPa·s
- Viscosity of reaction mixture ([2]; PVA 1% (w/v), 10 U/g-PVA, 4 hours): 1.3 mPa·s
- Viscosity of reaction mixture ([2]; PVA 1% (w/v), 10 U/g-PVA, 20 hours): 1.2 mPa·s
- Viscosity of reaction mixture ([2]; PVA 4% (w/v), 1 U/g-PVA, 0 hour): 34.0 mPa·s
- Viscosity of reaction mixture ([2]; PVA 4% (w/v), 1 U/g-PVA, 1 hour): 35.6 mPa·s
- Viscosity of reaction mixture ([2]; PVA 4% (w/v), 1 U/g-PVA, 4 hours): 18.6 mPa·s
- Viscosity of reaction mixture ([2]; PVA 4% (w/v), 1 U/g-PVA, 20 hours): 6.6 mPa·s
- Viscosity of reaction mixture ([2]; PVA 4% (w/v), 5 U/g-PVA, 1 hour): 30.3 mPa·s
- Viscosity of reaction mixture ([2]; PVA 4% (w/v), 5 U/g-PVA, 4 hours): 11.9 mPa·s
- Viscosity of reaction mixture ([2]; PVA 4% (w/v), 5 U/g-PVA, 20 hours): 3.7 mPa·s
- viscosity after reaction relative to the start of the reaction ([2]; PVA 4% (w/v), 5 units, 20 hours): about 1/10
- Viscosity of reaction mixture ([2]; PVA 10% (w/v), 1 U/g-PVA, 0 hour): 2530 mPa·s
- Viscosity of reaction mixture ([2]; PVA 10% (w/v), 1 U/g-PVA, 1 hour): 1490 mPa·s
- Viscosity of reaction mixture ([2]; PVA 10% (w/v), 1 U/g-PVA, 4 hours): 1550 mPa·s
- Viscosity of reaction mixture ([2]; PVA 10% (w/v), 1 U/g-PVA, 20 hours): 873 mPa·s
- Viscosity of reaction mixture ([2]; PVA 10% (w/v), 5 U/g-PVA, 1 hour): 1520 mPa·s
- Viscosity of reaction mixture ([2]; PVA 10% (w/v), 5 U/g-PVA, 4 hours): 769 mPa·s
- Viscosity of reaction mixture ([2]; PVA 10% (w/v), 5 U/g-PVA, 20 hours): 231 mPa·s
- viscosity after reaction relative to the start of the reaction ([2]; PVA 10% (w/v), 5 units per 1 g of PVA, 20 hours): about 1/10
- Thermal stability of PVA-oxidizing activity [3]: up to 45 °C
- Specific activity ([4]; PVA-oxidizing activity per mg protein at each purification step): 3.2 U/mg
- Total Activity (PVA-oxidizing activity) ([4]; at each purification step, from 4 L culture supernatant): 5.4 U
